Laboratory results published in the nanobody polyreactivity screen of Harvey et al. (2022).

Experiment: yeast display, Sf9 membrane polyspecificity reagent, FACS + sequencing; frameworks hold sequencing errors
How it was run: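 Sorting gates, low and high (top ~1%), were placed on anti-HA fluorescence to track expression and on streptavidin fluorescence to track reagent binding. A clone's polyreactivity label is taken from the gate it came out of. The reagent was 10% biotinylated, detergent-solubilized Sf9 membrane, applied for 1 hour at 4 °C to galactose-induced yeast display cells.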

Sequence	polyreactivity (PSR sort gate)
QGQLVESGGGLVQAGGSLRLSCPASGNTFKYYAMGWYRQAPGKEWELVAAISYSGGSTYYADSVKGRFTISRDNAKNTVYLQMNSLKPEDTAVYYCAADPTNSYLEYDEWGQGTQVTVSS	low polyreactivity
QVQVVESGGGLVQAGGSLRLSCAASGSIFFVYAMGWYRQAPGKERELVAAISSGDITYYADSVKGRFTISRDNAKNTVYLQLISLKPEDTAVYYCNAERLGNTLSPGGDDYWGQGTQVTVSS	low polyreactivity
QVQLVESGGGLVQAGGSLRLSCAASGRTFQGKAMGWYRQAPGKERELVAAISSSGGRTYYADSVKGRFTISRDNAKNTVYLQMNSLKPVDTSVYYCAARNYFWGQGTQVTVSS	low polyreactivity
QVQLVESGGGLVQAGGSLRLSCAASGIIFENYAMGWYRQAPGKERELVAAINKRGSRTYFADSVTGRFTISRDNAKNTVYLQMNSLKPEDTAVYYCNAVNPYYAPTDRRVGYDYWGQGTQVTVSS	high polyreactivity
QVQLVESGGGLVQAGGSLRLSCAASGSTFAAYAMGWYRQAPGKERELVAAISGGRTYYADSVKGRFTISRDNAKNTVYLEMYSLKPEDTAVYYCAKRYFYYTAFNAYGYWGQGTQVTVSS	high polyreactivity
QVQLVESGGGLVQAGGSLRLSCAASGRILYTYAMGWYRQAPGKERELVASIRSSGGITYYADSVKGRFTISRDNAKNTVYLQMNSLKPEDTAVYYCNAPYLVGTGPNGEYDYWGQGTEVTVSS	high polyreactivity
QVQLVESGGGLVQAGGSLRLICDASGSIFEDYTMGWYRPGPGKERELVAASSRSGVRKYYADSVKGLFTISRDNAKNTVNLQMNSLKPEDTGVYYCARTRVASKGYDYWGQGTQVTVSS	high polyreactivity
QVQLVESGGGLVQAGGSLRLTCAASGRIFTTYAMGWYRQAPGKERELVAAISRSGGSTYYADSVKGRFTISRDNAKNTVYLQMNSMKPEDTAVYYCAAVPTSNSFRSSFYYWGQGTQVTVSS	high polyreactivity
QVQLVESGGGLVQAGGSLRLSCAASGSTFQVYAMGWYRQAPGKERELVAAIRYRDGNTYYADSVKGRFTISRDNAKNTVYLQMNSLKPEETAVYYCNARLYMPSGYRRSNGYESDYWGQGTQVTVSS	high polyreactivity
QVQLVESGGGLVQAGGSLRLSCADSGRILPFYAMGWYRQAPGKERELVADISLSGGDTYYADSVKGRFTISRDNAKNTVYLQMNSLKPEDTAVYYCAKDRYQWLWSPEYDYWGQGTQVTVSS	low polyreactivity
QVQLEESGGGLVQAGGSLRLSCAASGFILCDYAMGWYRQATGKERELVAGINYRGGSTHYADSVKGRFTISRDIAKNTVYLQMNSLKPEDTAVYYCSKRRQSYPYKTSTWYSHYSWGQGTQVTVSS	high polyreactivity
QVQLVESGGGLVQAGGSLRLSCAASGSSFYPYAMGWYRQAPGKERELVAAISRRGGSTYYADSVKGRFTISRDNAKNTVYLQMNSLKPVDTEVYYCNVVTDSPYPVDYWGQGTQVTVSS	high polyreactivity
QVQLVESGGGLVQARGSLRLSCASSGSIFGWNAMGGYRQAPGKERELVAAISSVGSTYYADSVKGRFTISRDNAKNTVYLQMNSLKPEDTAVYYCAAPVIQITDVWYDAETYPDYDYWGEGTQVTVSS	low polyreactivity
QVQLVESGGGLVQAGGSLRLSCAASGSTFRGYAMGWYRHAPGKERELVAAITYISDSTYYADSVKGRFTISRDNAKNTVYLQMNSLKPEDTAVYYCIAYYDGDWRYTSQETGDHWGQGTQVTVSS	low polyreactivity
QVQLVESGGGLVQAGGSLRLSCAASGLIFDKYAMGWYRQAPGKERELVAAITRSSGTTYYADSVKGRFTISRDNAKNTVYLQMNSLKPEETAVYYCAARFIWGYWGVGSYYWGQATQVTVSS	low polyreactivity
QVQLVESGGGLVQAGGSLRLSCAASGFIFGPYTMGWYRQAPGKERELVAAINNSGSTNYADSVKGRFTISRDNAKNTVYLQMNCLKPEDTAVYFCAAEPIIFVRYDYWGQGTQVTVSS	low polyreactivity
QVQLVESGGGLVQAGGSLRLSCAASGRTFYEYTIGWYRQAPGKERELVAAITWSVGSTYYADSVKGRFTISRDIAKNTVYLQMNSLKPEETAVYDCAAYYYVWYYYWGQGTQVTVSS	low polyreactivity
QVQLVESGGGLVQAGGSLRLSCADSGITFWKYAMGWYRQAPGKERELVAAISGRGGSTYYADSVKGRFTISRDNAKNTVYLQMNSLKPEDTAVYYCAKYPGISGYNYWGQGTQVTVSS	high polyreactivity
QVQLVESGGGLVQAGGSLRLSCAASGFTFPVNAMGWYRQAPGKERELVAAIRWIGGDTYYADSVKGRFTISRDNAKNPVYLQMNSLKPEDTAVYYCAAEDTDDYSIWYEYWGQGTQVTVSS	high polyreactivity
QVQLVESGGGLVQAGGSLRLSCAASGRTFYQNAMGWYRQAPGKERELVAAISYRGASTYYADSVKGRFTISRDNAKNTVYLQMHSLKPEDTAVYYCAVAARTRARVLYGYDYWGQGTQVTVSS	low polyreactivity
QVQLVESGGGLVQAGGSLRISCAASGRTFDPYAMGWYRQAPGKERELVAAITSGGSTYYADTVKGRFTISRDNAKNTVYLQMNSLTPEDTAVYYCAKPYYRLEDYWGQGTQVTVSS	low polyreactivity
QVQLVESGGGLVQAGGRLRLSCAASGSIFRVYAMGWYRQAPGKERELVARISRGGRTNYADSVKGRFTISRDNAKNTVYLQMNSLKPEDTAVYYCAADVVSLESYSYQSLGYDYWGQGTQVTVSS	high polyreactivity

Sequence	polyreactivity (PSR sort gate)
QVQLVESGGGLVQAGGSLRLSCAASGRTFGLNGMGWYRQAPGKEREFVATITGSGTSTYYADSVKGRFTISRDNAKNTVYLQMNSLKPEDTAVYYCAALSGLWGYHYYHEYYYWGQGTQVTVSS	low polyreactivity
QVHLVDSGGGLVQAGGSLRLSCAASGRIIDLYAMGCYRQAPGKEWELVAVIDIRDTSTYYADSVKGRFTISRDNAKNTVYLEMNSLKPEDTSVYYCAADYLVYDWYTYGYWGQGTQVTVSS	high polyreactivity
QVQLVESGGGLVQAGGSLRLSCAASGFTFRYYAMGWYRQAPGKERELVAAISWSGGRTYYADSVKGRFTISRDNAKNTVYLQMNSLKPEDTAVYYCAADGYPYFYGDFDYWGQGTQVTVSS	high polyreactivity
QVQLVESGGGLVQAGGSLRLSCAPSGGTFVTYAMGWYIQAPGKERELVAAITTGGSTYYADSVKGRFTISRDNAKNTVYLQMNSLKPEDTAVYYCAAVYTGSGKRYYKGYYWGQGTQVTVSS	low polyreactivity
QVQLVESGGGLVQAGGSLRLSCAASGSIFAPYVMGWYRQAPGKERELVAAITESGGRTYYADSVKGRFTISRDNAKNTVYLQMNSLKPEDTAVYYCAARTYDRNRQLRRQWYDYWGQGTQVTVSS	high polyreactivity
QVQLVESGGGLVQAGGSLRLSCASSGSTFNSYAMGWYRQAPGKERELVAAISWSGGSTYYADSVKGRFTISRDNAKNTVYLQMNSLKPEDTAVYYCNADYWWEYAYVVDYWGQGTQVTVSS	low polyreactivity
QVQLVESGGGLVQAGGSLRLSCAASGSTFLDNTMGWYRQAPGKEREFVAAISSSVYSTYYADSVKGRFSISRDNAKNTVYLQMNSLKPEDTAVYFCAADRGFYPSLWDYDYWGQGTQVTVSS	low polyreactivity
QVQLVESGGGLVQAGGSLRLSCAASGFTFTTYAMGWYRQAPGKERELVARISRRSGSTYYADSVKGRFTISRDNAKNTVYLQMNSLKPEDTAVYYCNADVDRSTTIFDYWGQGTQVTVSS	high polyreactivity
QVQLVESGGGLVQAGGSLRLSCAASGRIFKYYAMGWYRQAPGKERELVAAITRNGGITYYADSVKGRFTISRDNAKNTVYLQMNSLKPEDTAVYYCAAGQRGRYSISSDEYNYWGQGTQVTVSS	high polyreactivity
QDQHVESGGGLVQAGGSLRLSFADSGITFDYYAMGWYRQAPGKERELVAAISVSGGDTYYADSVKGRFTISRDNAKNTVYLQMNRLKPQDTSVYYCAAEEVSPRWYDYWGQGTQVTVSS	low polyreactivity
QVQLVESGGGLVQAGGSLRLSCAASGRTFRAYAMGWYRQAPGKERELVASISRGGSTKYADSVKGRFTISRDNAKNTVYLQMNSVKPEDTAVYYCAADRLRDGVDYWGQGTQVTVSS	low polyreactivity
QVQLEESGGGLVQAGGSLRLSCAASGYIFSQYAMGWYRPAPGKERELVASISGSGSSTYYADSVKGRFTISRDNAKNTVYLQMNSLKPADTAVFYCAAEWTWGWYITFDYWGQGTQVTVSS	high polyreactivity
QVQLVESGGGLVQAGGSLRLSCAASGSTFAKNAMGWYSQAPGIDRELVAAISSGGSTYYADSVKGRFTIARDNAKNTVYLQMNSLKPEDTAVYYCAASWIQGYRTYGYWGQGTQVTVSS	high polyreactivity
QVQLVESGGGLVQAGGSLRLSCAASGSTFKVYAMRWYRQAPGKERELVARISTRVGSTYYADSVKGRFTISRDNAKNSVYLQMNSLKAEDSAVYYCNARWWDPPYYYWGQGTQVTVSS	high polyreactivity
QVQLVESGGGLVQAGGSLRLSCAASGRIFGGYTMGWYRQAPGKERELVAAIRWSGGRTYYADSVKGRFTISRDNAKNTVYLQMNSLKPEDTAVYYCNRTPRYTIRYGYWGQGTQVTVSS	high polyreactivity
QVQLVESGGGLVQAGGSLRLSCAASGRTFDGNAMGWYRQAPGKERELVAAISQGGGSTYYADSVKGRFTISRDNAKNTVYLQMNSLKPEDTAVYYCNAVGYTPRKPSKFDYWGQGTQVTVSS	low polyreactivity
QVQLVESGGGLVQAGGSLRLSCAASGRTFKKYAMGWYRQAPGKVREFVARITYSAGSTYYADSVKGRFTISRDNAKNTVYLQMNSLKPEDTAVYYCARRYASSGPRWYSRHGEYDYWGQGTQVTVSS	low polyreactivity
QVQLVESGGGLVQAGGSLRLSCAASGSTFVRYAMGWYRQAPGKERELVAAIRWSSGSTYYADSVKGRFTISRDNAKNTVYLQMNSLKPEDTAVYYCAKRQYLYTSKYDYWGQGTQVTVSS	high polyreactivity
QVQLVESGGGLVQAGGSLRLSCAASGRILIHYAMRWYRQAPGKERELVAAIDNSVSTYYADSVKGRFTISRDNAKNTVYLQMNSLKPEDTAVYYCAADHWTHSVWGSGYKYYYWGQGTQVTVSS	high polyreactivity
QVQLVESGGGLVQAGGSLLLICAASGSTFPYNAMGWYRQAPGKQRELVASITSRGGSTYYADSVKGRFTISRDNAKNTVYLQMNSLKPQDTAVYYCATPGDTYGWTRRRYYYWGQGTQVTVSS	high polyreactivity
QVQLVESGGGLVQAGGSLRLSCAASGITFLPYARGWYRQAPGKERELVAAITRGGGSTYADSVKGRFTISRDNAKNTVYLQMNSLKPEDTAVYYCAKRYGRVSWYEDYDYWGQGTQVTVSS	low polyreactivity
